# B1: Adenosine Kinase (mADK) (Mus musculus) (protein)
# chain: MAAADEPKPKKLKVEAPQALSENVLFGMGNPLLDISAVVDKDFLDKYSLKPNDQILAEDKHKELFDELVKKFKVEYHAGGSTQNSMKVAQWLIQEPHKAATFFGCIGIDKFGEILKRKAADAHVDAHYYEQNEQPTGTCAACITGGNRSLVANLAAANCYKKEKHLDLERNWVLVEKARVYYIAGFFLTVSPESVLKVARYAAENNRVFTLNLSAPFISQFFKEALMDVMPYVDILFGNETEAATFAREQGFETKDIKEIAKKAQALPKVNSKRQRTVIFTQGRDDTIVAAENDVTAFPVLDQNQEEIIDTNGAGDAFVGGFLSQLVSDKPLTECIRAGHYAASVIIRRTGCTFPEKPDFH
# Substrate: Nc1ncnc2c1ncn2[C@@H]1O[C@H](COP(=O)(O)OP(=O)(O)OP(=O)(O)O)[C@@H](O)[C@H]1O
# Assay: purified protein
# Type: biochemical, Mus musculus
# Details: Mg2+ BS1 (ATP site); adenosine competes with ATP
protein,measurement,value
B1,Km,2.1 µM

# — article PMC6086891, “Adenosine Kinase couples sensing of cellular potassium depletion to purine metabolism” (Scientific Reports, 2018)
